# Data from patent US20170340748A1.
# Like-named read-outs stand apart in the source and are kept apart here.
# Columns and labels:
# T47D cells (human) [1] = target: T47D cells (human) (UniProt P15328); experiment: flow cytometry binding on T47D cells
# T47D cells (human) [2] = target: T47D cells (human) (UniProt P15328); experiment: flow cytometry binding on T47D cells; remark: listed apart in the source
# T47D cells (human), sequence (P15328 25-234, stated change not applied): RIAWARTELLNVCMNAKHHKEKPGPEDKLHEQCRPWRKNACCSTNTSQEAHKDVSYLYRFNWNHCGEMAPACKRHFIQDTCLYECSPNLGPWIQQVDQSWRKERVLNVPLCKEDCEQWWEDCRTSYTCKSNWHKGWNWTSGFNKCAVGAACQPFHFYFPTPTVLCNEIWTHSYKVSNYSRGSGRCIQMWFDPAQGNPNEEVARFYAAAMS
substance,measurement,setting,value
huMOV19,EC50,T47D cells (human) [1],0.144 nM
same,EC50,T47D cells (human) [2],0.314 nM
